The results in this text go back to patent publication US20260207704A1, “STAPLED PEPTIDES AND METHODS THEREOF” (priority 2022, published 2026).

*1 amine or outer side, *2 acyl side, *3 side chain or, on linkers, in order; H or OH if unused. Bridges are numbered along the chain shown (N, C = ends). Primed or numbered codes have the meaning given here. [ ]: non-standard residue; d: D form. PyrS2(6) = (S)-3-amino-1-((pent-4-en-1-yloxy)carbonyl)pyrrolidine-3-carboxylic acid, stapled with another olefin-containing amino acid residue through the olefin group, O=C(OCCCC=[*:3])N1CC[C@@](N[*:1])(C(=O)[*:2])C1; B5(4) = 2-amino-2-(pent-4-en-1-yl)hept-6-enoic acid, stapled through each of its two olefin groups with other olefin-containing amino acid residues, O=C(C(CCCC=[*:3])(CCCC=[*:4])N[*:1])[*:2]; PyrS2″ = (S)-3-amino-1-((pent-4-en-1-yloxy)carbonyl)pyrrolidine-3-carboxylic acid (olefin stapling residue), C=CCCCOC(=O)N1CC[C@@](N[*:1])(C(=O)[*:2])C1; PyrS2(3) = (S)-3-amino-1-((pent-4-en-1-yloxy)carbonyl)pyrrolidine-3-carboxylic acid, olefin residue, C=CCCCOC(=O)N1CC[C@@](N[*:1])(C(=O)[*:2])C1; B5(3) = 2-amino-2-(pent-4-en-1-yl)hept-6-enoic acid, two olefin arms, C=CCCCC(CCCC=C)(N[*:1])C(=O)[*:2]; 2F3MeF(3) = aromatic amino acid residue, Cc1cccc(C[C@H](N[*:1])C(=O)[*:2])c1F; Phe(3-COOH) = N[C@@H](Cc1cccc(C(=O)O)c1)C(=O)O; 2F3MeF = Cc1cccc(C[C@H](N[*:1])C(=O)[*:2])c1F; Phe(2-Cl) = N[C@@H](Cc1ccccc1Cl)C(=O)O; Bta = N[C@@H](Cc1csc2ccccc12)C(=O)O; αAllylPro = C=CC[C@@]1(C(=O)O)CCCN1; BztA = aromatic amino acid residue; 4mampiperidine = not defined here; tBuAla = CC(C)(C)C[C@H](N)C(=O)O; Biphen33COOH = not defined here; 3Thi = N[C@@H](Cc1ccsc1)C(=O)O; Cha = N[C@@H](CC1CCCCC1)C(=O)O; PyrS2(4) = not defined here; hSer = N[C@@H](CCO)C(=O)O; TfeGA = not defined here; GlnR = not defined here; PL3 = not defined here; B5 = not defined here

One assay has as its system DLD1 reporter. The assay is described as follows: reporter assay (DLD1 reporter assay). It counts as cell-based. To be noted: read-out: DLD1 4% Abs IC50; DLD1 4%. An excerpt: Various technologies can be utilized for characterizing and/or assessing provided technologies (e.g., agents (e.g., various peptides), compositions, methods, etc.) in accordance with the present disclosure. As described herein, in some embodiments, a useful technology is or comprises fluorescence polarization. In some embodiments, a useful technology assesses LogP or LogD. In some embodiments, a useful technology is or comprises a CHI LogD assay. In some embodiments, a useful technology assesses solubility. In some embodiments, a useful technology is or comprises NanoBRET. In some embodiments, a useful technology is or comprises a reporter assay (e.g., DLD1 reporter assay). In some embodiments, a useful technology is or comprises alphascreen. Certain useful protocols are described in the Examples. Those skilled in the art appreciate that suitable adjustments may be made to such protocols, e.g., according to specific conditions, agents, purposes, etc.
Various technologies can be utilized to assess technologies of the present disclosure. For example, in some embodiments, solubility, LogD, interactions with targets, etc. of various agents such as stapled peptides were assessed using technologies described in WO 2022/261257 (e.g., those in its Examples). In some embodiments, solubility, shake flask LogD, and binding to beta-catenin were assessed. In some embodiments, an assay for assessing interactions, e.g., with beta-catenin, was fluorescence polarization as described in WO 2022/261257. In some embodiments, an assay was Nano-BRET target engagement assay that assessed beta-catenin/TCF4 engagement as described in WO 2022/261257. In some embodiments, an assay was a reporter assay as reported in Example 4 of WO 2022/261257. In some embodiments, an assay was a COLO320DM proliferation assay as reported in Example 4 of WO 2022/261257.
(A reporter such as luciferase makes a cellular process visible.)

Another assay addresses beta-catenin (human). The assay is described as follows: fluorescence polarization; bin >50 nM. (In general: In fluorescence polarisation assays a small probe gives low polarisation when free and higher when bound to something large.)

Chain of beta-catenin (human) (B6V8E6 146-665 limits assumed): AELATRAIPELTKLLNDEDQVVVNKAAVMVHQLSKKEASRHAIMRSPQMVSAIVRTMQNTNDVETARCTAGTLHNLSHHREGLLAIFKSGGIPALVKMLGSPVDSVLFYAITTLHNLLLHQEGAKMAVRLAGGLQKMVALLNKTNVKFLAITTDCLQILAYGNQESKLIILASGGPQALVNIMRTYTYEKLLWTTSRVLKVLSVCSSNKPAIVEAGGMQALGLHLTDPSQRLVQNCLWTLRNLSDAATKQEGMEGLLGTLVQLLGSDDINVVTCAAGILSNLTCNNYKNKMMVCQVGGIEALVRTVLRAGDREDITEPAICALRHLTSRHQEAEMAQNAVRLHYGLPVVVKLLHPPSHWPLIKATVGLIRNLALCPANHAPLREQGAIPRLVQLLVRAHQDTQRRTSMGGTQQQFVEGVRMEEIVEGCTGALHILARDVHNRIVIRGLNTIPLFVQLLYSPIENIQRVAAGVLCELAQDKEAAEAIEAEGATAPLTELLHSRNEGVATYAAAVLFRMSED

Regarding `CC(=O)N1CCC[C@]12CC=CCCCC1(CCCC=CCCCOC(=O)N3CC[C@@]4(C3)NC(=O)[C@H](CCCCNC(=O)CC[C@@H](C(=O)N[C@@H](C)C(N)=O)NC(=O)[C@H](Cc3csc5ccccc35)NC(=O)[C@H](Cc3ccccc3C(F)(F)F)NC4=O)NC(=O)[C@H](Cc3ccccc3)NC(=O)[C@H](C)NC(=O)C(C)(C)NC(=O)[C@H](CN(CC(=O)O)CC(F)(F)F)NC(=O)[C@H](CC(=O)O)NC1=O)NC(=O)[C@H](CC(C)(C)C)NC(=O)[C@H](CC(=O)O)NC2=O` (single isomer, unassigned) [I-121, Ac-PL3-Asp-Npg-B5-Asp-TfeGA-Aib-Ala-Phe-Lys*3-PyrS2-2F3MeF-BztA-GlnR*3-Ala-NH2], the 50% inhibitory concentration (IC50) in the assay with DLD1 reporter lay within 1000 to 5000 nM.
Still for that read-out and setting: as for `CC(=O)N1CCC[C@]12CC=CCCCC1(CCCC=CCCCOC(=O)N3CC[C@@]4(C3)NC(=O)[C@H](CCCCNC(=O)CC[C@@H](C(=O)N[C@@H](CC(C)C)C(N)=O)NC(=O)[C@H](Cc3csc5ccccc35)NC(=O)[C@H](Cc3ccccc3C(F)(F)F)NC4=O)NC(=O)[C@H](Cc3ccccc3)NC(=O)[C@H](C)NC(=O)[C@H](C)NC(=O)[C@H](Cc3cccc(C(=O)O)c3)NC(=O)[C@H](CC(=O)O)NC1=O)NC(=O)[C@H](CC1CCCCC1)NC(=O)[C@H](CC(=O)O)NC2=O` (single isomer, unassigned) [I-106, Ac-PL3-Asp-Cha-B5-Asp-3COOHF-Ala-Ala-Phe-Lys*3-PyrS2-2F3MeF-BztA-GlnR*3-Leu-NH2], the figure is at most 1000 nM.
Same read-out and setting: the value for `CC(=O)N1CCC[C@]12CC=CCCCC1(CCCC=CCCCOC(=O)N3CC[C@@]4(C3)NC(=O)[C@H](CCCCNC(=O)CC[C@@H](C(=O)N[C@@H](CC(C)C)C(=O)N[C@@H](CO)C(N)=O)NC(=O)[C@H](Cc3csc5ccccc35)NC(=O)[C@H](Cc3ccccc3C(F)(F)F)NC4=O)NC(=O)[C@H](Cc3ccccc3)NC(=O)[C@H](C)NC(=O)[C@H](C)NC(=O)[C@H](Cc3cccc(C(=O)O)c3)NC(=O)[C@H](CC(=O)O)NC1=O)NC(=O)[C@H](CC(C)(C)C)NC(=O)[C@H](CC(N)=O)NC2=O` (relative stereo) [I-142, Ac-PL3-Asn-Npg-B5-Asp-3COOHF-Ala-Ala-Phe-Lys*3-PyrS2-2F3MeF-BztA-GlnR*3-Leu-Ser-NH2] was above 5000 nM; that for `CC(=O)N1CCC[C@]12CC=CCCCC1(CCCC=CCCCOC(=O)N3CC[C@@]4(C3)NC(=O)[C@H](CCCCNC(=O)CC[C@@H](C(=O)N[C@@H](CC(C)C)C(=O)N[C@@H](CO)C(N)=O)NC(=O)[C@H](Cc3csc5ccccc35)NC(=O)[C@H](Cc3ccccc3C(F)(F)F)NC4=O)NC(=O)[C@H](Cc3ccccc3)NC(=O)[C@H](C)NC(=O)C3(CCC3)NC(=O)[C@H](Cc3cccc(C(=O)O)c3)NC(=O)[C@H](CC(=O)O)NC1=O)NC(=O)[C@H](CC(C)(C)C)NC(=O)[C@H](CC(=O)O)NC2=O` (relative stereo) [I-140, Ac-PL3-Asp-Npg-B5-Asp-3COOHF-Cbg-Ala-Phe-Lys*3-PyrS2-2F3MeF-BztA-GlnR*3-Leu-Ser-NH2] was at most 1000 nM.

B1: I-95 (peptide)
peptide: Ac-[αAllylPro]D[tBuAla][B5(4)]D[Phe(3-COOH)][GlnR]AFL[PyrS2″][2F3MeF(3)][BztA][GlnR](4mampiperidine)A-NH2
modifications: staple 1-4 (inferred); not fully specified (bridges); printed as Ac-PL3-Asp-Npg-B5-Asp-3COOHF-GlnR-Ala-Phe-Leu-PyrS2-2F3MeF-BztA-[4mampiperidine]GlnR-Ala-NH2; reading uncertain
B1 gave an IC50 with beta-catenin (human) below 200 nM.

B2: I-81 (peptide)
peptide: Ac-[PL3][hSer][tBuAla][B5]D[Phe(3-COOH)]AAFK[PyrS2″][3Thi][BztA][GlnR]A-NH2
modifications: staple 1-4 (inferred); bridge 10-14; not fully specified (residue 10, bridges); printed as Ac-PL3-Hse-Npg-B5-Asp-3COOHF-Ala-Ala-Phe-Lys*3-PyrS2-3Thi-BztA-GlnR*3-Ala-NH2; reading uncertain
As to B2, the IC50 with beta-catenin (human) is below 200 nM.

B3: I-114 (peptide)
peptide: Ac-[PL3]N[tBuAla][B5]D[TfeGA]AAFK[PyrS2(4)][2F3MeF][Bta][GlnR]A-NH2
modifications: staple 1-4; bridge 10-14; reading uncertain; also: PyrS2 tied into a staple, partner not placed
On to B3, for which, in the assay with beta-catenin (human), the concentration for half-maximal inhibition (IC50) is below 200 nM.

B4: I-85 (peptide)
peptide: Ac-[PL3][hSer][tBuAla][B5]D[Phe(3-COOH)]SAFK[PyrS2″][3Thi][BztA][GlnR]A-NH2
modifications: staple 1-4 (inferred); bridge 10-14; not fully specified (residue 10, bridges); printed as Ac-PL3-Hse-Npg-B5-Asp-3COOHF-Ser-Ala-Phe-Lys*3-PyrS2-3Thi-BztA-GlnR*3-Ala-NH2; reading uncertain; also: Lys10 and GlnR14 marked *3
In turn, B4 registered an IC50 with beta-catenin (human) below 200 nM.

B5: I-53 (peptide)
peptide: Ac-[αAllylPro]D[tBuAla][B5(3)]D[Phe(3-COOH)]K(diphenate)AFL[PyrS2(3)][Phe(2-Cl)][Bta]K-NH2
modifications: not fully specified (residue 6, bridges); printed as Ac-PL3-Asp-Npg-B5-Asp-3COOHF-[diphenate]Lys-Ala-Phe-Leu-PyrS2-2ClF-BztA-Lys-NH2
As for B5, the 50% inhibitory concentration (IC50) with beta-catenin (human) is below 200 nM.

B6: I-50 (peptide)
peptide: Ac-[αAllylPro]D[tBuAla][B5(4)]D[Phe(3-COOH)]K(isophthalate)AFL[PyrS2(6)][Phe(2-Cl)][Bta]K-NH2
modifications: not fully specified (residue 6, bridges); printed as Ac-PL3-Asp-Npg-B5-Asp-3COOHF-[isophthalate]-Lys-Ala-Phe-Leu-PyrS2-2ClF-BztA-Lys-NH2; also: isophthalate on Lys7 side chain is a staple, partner not given here
On to B6, for which the concentration for half-maximal inhibition (IC50) with beta-catenin (human) was below 200 nM.

B7: I-49 (peptide)
peptide: Ac-[αAllylPro]D[tBuAla][B5(4)]D[Phe(3-COOH)]KAFL[PyrS2(6)][3Thi][Bta]K-NH2
modifications: not fully specified (residues 6, 7, bridges); printed as Ac-PL3-Asp-Npg-B5-Asp-3COOHF-[Biphen33COOH]-Lys-Ala-Phe-Leu-PyrS2-3Thi-BztA-Lys-NH2
B7: the 50% inhibitory concentration (IC50) in the assay with beta-catenin (human) is below 200 nM.

B8: I-90 (peptide)
peptide: Ac-[PL3]D[tBuAla][B5]N[Phe(3-COOH)]QAFK[PyrS2″][3Thi][BztA][GlnR]A-NH2
modifications: staple 1-4 (inferred); bridge 10-14; not fully specified (residue 10, bridges); printed as Ac-PL3-Asp-Npg-B5-Asn-3COOHF-Gln-Ala-Phe-Lys*3-PyrS2-3Thi-BztA-GlnR*3-Ala-NH2; reading uncertain; also: Lys10 and GlnR14 marked *3
On to B8, for which the IC50 with beta-catenin (human) is below 200 nM.

B9: I-111 (peptide)
peptide: Ac-[PL3]D[tBuAla][B5]D[Phe(3-COOH)][Cha]AFK[PyrS2(4)][2F3MeF][Bta][GlnR]L-NH2
modifications: staple 1-4; bridge 10-14; reading uncertain; also: PyrS2 tied into a staple, partner not placed, printed as Ac-PL3-Asp-Npg-B5-Asp-3COOHF-Cha-Ala-Phe-Lys*3-PyrS2-2F3MeF-BztA-GlnR*3-Leu-NH2
B9: the IC50 with beta-catenin (human) was below 200 nM.

B10: I-110 (peptide)
peptide: Ac-[PL3]D[tBuAla][B5]D[Phe(3-COOH)][Cha]AFK[PyrS2(4)][2F3MeF][Bta][GlnR]L-NH2
modifications: staple 1-4; bridge 10-14; reading uncertain; also: PyrS2 tied into a staple, partner not placed, printed as Ac-PL3-Asp-Npg-B5-Asp-3COOHF-Cha-Ala-Phe-Lys*3-PyrS2-2F3MeF-BztA-GlnR*3-Leu-NH2
For the molecule B10, the concentration for half-maximal inhibition (IC50) with beta-catenin (human) was below 200 nM.

B11: I-54 (peptide)
peptide: Ac-[αAllylPro]D[tBuAla][B5(3)]D[Phe(3-COOH)]K(Biphen33COOH)AFL[PyrS2(3)][Phe(2-Cl)][Bta]K-NH2
modifications: not fully specified (residue 6, bridges); printed as Ac-PL3-Asp-Npg-B5-Asp-3COOHF-[Biphen33COOH]Lys-Ala-Phe-Leu-PyrS2-2ClF-BztA-Lys-NH2; reading uncertain
As to B11, the IC50 with beta-catenin (human) is below 200 nM.

B12: I-109 (peptide)
peptide: Ac-[PL3]D[tBuAla][B5]D[Phe(3-COOH)][tBuAla]AFK[PyrS2(4)][2F3MeF][Bta][GlnR]L-NH2
modifications: staple 1-4; bridge 10-14; reading uncertain; also: PyrS2 tied into a staple, partner not placed, printed as Ac-PL3-Asp-Npg-B5-Asp-3COOHF-Npg-Ala-Phe-Lys*3-PyrS2-2F3MeF-BztA-GlnR*3-Leu-NH2
Consider B12, for which the IC50 in the assay with beta-catenin (human) is below 200 nM.

As a reminder, the IC50 is the concentration that gives 50% inhibition.
